Results taken from paper PMC7108862, “GPC1 specific CAR-T cells eradicate established solid tumor without adverse effects and synergize with anti-PD-1 Ab” (eLife, 2020).

Legend:
[1] = molecular target: T1, recombinant hGPC1 protein (Homo sapiens, UniProt P35052); test: SPR; scFv-Fc fusion protein (1 μg/ml) captured by polyclonal rabbit anti-mouse IgG immobilised on CM5 chip; recombinant hGPC1 (6.25–400 nM) or mGPC1 (25–400 nM) injected; 25°C, HBS-EP+ buffer, Biacore T200; conditions: both partners purified
T1 construct: glypican-1 (GPC1), human, recombinant protein from Biolegend; also called Human GPC1; human glypican-1; source: bought: Biolegend
T1 sequence (P35052 24-530): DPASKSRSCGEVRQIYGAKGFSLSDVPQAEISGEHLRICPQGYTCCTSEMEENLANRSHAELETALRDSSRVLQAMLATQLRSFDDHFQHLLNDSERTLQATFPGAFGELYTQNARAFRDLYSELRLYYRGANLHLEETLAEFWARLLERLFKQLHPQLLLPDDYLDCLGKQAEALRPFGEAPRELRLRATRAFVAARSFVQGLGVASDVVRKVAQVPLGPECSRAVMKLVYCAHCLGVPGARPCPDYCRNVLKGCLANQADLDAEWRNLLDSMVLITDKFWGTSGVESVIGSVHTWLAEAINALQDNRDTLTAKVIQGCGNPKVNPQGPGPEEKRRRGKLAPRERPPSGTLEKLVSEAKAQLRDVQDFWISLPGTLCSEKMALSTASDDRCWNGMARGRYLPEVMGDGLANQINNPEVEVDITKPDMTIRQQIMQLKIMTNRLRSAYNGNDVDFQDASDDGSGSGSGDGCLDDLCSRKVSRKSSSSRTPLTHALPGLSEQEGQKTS

[2] = molecular target: T2, recombinant mGPC1 protein (Mus musculus, UniProt Q9QZF2); test: as above; conditions: both partners purified
T2 construct: glypican-1 (GPC1), mouse, recombinant protein from Biolegend; also called Mouse GPC1; mouse glypican-1; source: bought: Biolegend
T2 sequence (Q9QZF2 24-529): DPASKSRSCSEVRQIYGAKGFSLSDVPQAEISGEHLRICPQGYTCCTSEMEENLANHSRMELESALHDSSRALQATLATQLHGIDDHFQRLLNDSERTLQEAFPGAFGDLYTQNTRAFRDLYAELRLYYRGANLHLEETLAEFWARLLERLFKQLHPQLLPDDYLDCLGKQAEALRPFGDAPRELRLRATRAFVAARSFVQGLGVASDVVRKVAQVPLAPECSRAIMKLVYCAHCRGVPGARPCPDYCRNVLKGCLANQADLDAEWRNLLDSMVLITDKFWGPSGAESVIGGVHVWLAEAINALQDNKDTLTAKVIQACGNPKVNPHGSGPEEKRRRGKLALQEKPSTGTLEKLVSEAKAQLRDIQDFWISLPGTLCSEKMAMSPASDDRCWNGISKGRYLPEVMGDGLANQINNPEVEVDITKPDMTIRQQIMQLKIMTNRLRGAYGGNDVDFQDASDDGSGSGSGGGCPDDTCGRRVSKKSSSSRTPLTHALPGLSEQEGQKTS

Row | Binder | Kd [1] | Kd [2]
1 | LH form of anti GPC1 scFv-mIgG2a Fc fusion protein (scFv, V domains shown, VL of anti-GPC1 mAb (clone: 1–12); purple) and its source data 1; linker of the scFv; orange); VH of anti-GPC1 mAb (clone: 1–12); green) and its source data 1; scFv cloned into pCAG-Neo mIgG2a-Fc plasmid (FUJIFILM Wako); Variable regions come from a chicken-based antibody; In the functional rows the same scFv stood as a CAR (human CD28 and CD3ζ domains) on human T cells; also called LH form of …) VH: AVTLDESGGGLQTPGRALSLVCKASGFTFSRYAMYWVRQAPGKGLEFVAGIGNTGRYTGYGSAVKGRATISRDSGQSTVRLQLNNLRAEDTGNYYCAKSVSPYCCDAADIDAWGHGTEVIVSS VL: ASTQPSSVSANPGETVKITCSGGSSGYAYGWYQQKSPGSAPVTLLYSNNNRPSDIPSRFSGSKSGSTATLTITGVQAEDEAVYFCGSVDSSSYAGIFGAGTTLTVL | 9.06 nM | 51.8 nM
2 | HL form of anti GPC1 scFv-mIgG2a Fc fusion protein (scFv, V domains shown, VH of anti-GPC1 mAb (clone: 1–12), as the VH of m1; linker of the scFv; orange); VL of anti-GPC1 mAb (clone: 1–12), as the VL of m1; scFv cloned into pCAG-Neo mIgG2a-Fc plasmid (FUJIFILM Wako); Variable regions come from a chicken-based antibody; In the functional rows the same scFv stood as a CAR on human T cells (human CD28/CD3ζ) or murine T cells (mouse CD28/CD3ζ); also called HL form of scFv; …) VH: AVTLDESGGGLQTPGRALSLVCKASGFTFSRYAMYWVRQAPGKGLEFVAGIGNTGRYTGYGSAVKGRATISRDSGQSTVRLQLNNLRAEDTGNYYCAKSVSPYCCDAADIDAWGHGTEVIVSS VL: ASTQPSSVSANPGETVKITCSGGSSGYAYGWYQQKSPGSAPVTLLYSNNNRPSDIPSRFSGSKSGSTATLTITGVQAEDEAVYFCGSVDSSSYAGIFGAGTTLTVL | 12.2 nM | 109 nM
